{"source": "patent US20180360972A1", "about": "(REGENTS OF THE UNIVERSITY OF MINNESOTA, published 2018)", "binders": {"B1": {"name": "equal mixture of tetrapeptides CJL-1-14+CJL-1-80 (other)", "peptide 1": "Ac-H[dF]RW-NH2", "peptide 2": "Ac-H[d2Nal]RW-NH2", "modifications": "also: 1:1 mixture of two separate peptides"}, "B2": {"name": "mMC4R-NanoLuc fusion protein (receptor, mouse, UniProt P56450 1-332, looked up)", "chain": "MNSTHHHGMYTSLHLWNRSSYGLHGNASESLGKGHPDGGCYEQLFVSPEVFVTLGVISLLENILVIVAIAKNKNLHSPMYFFICSLAVADMLVSVSNGSETIVITLLNSTDTDAQSFTVNIDNVIDSVICSSLLASICSLLSIAVDRYFTIFYALQYHNIMTVRRVGIIISCIWAACTVSGVLFIIYSDSSAVIICLISMFFTMLVLMASLYVHMFLMARLHIKRIAVLPGTGTIRQGTNMKGAITLTILIGVFVVCWAPFFLHLLFYISCPQNPYCVCFMSHFNLYLILIMCNAVIDPLIYALRSQELRKTFKEIICFYPLGGICELSSRY", "notes": "whole, on cells; not shown: NanoLuc on the C-terminus"}}, "key": {"[1]": {"biological_target": "hMC4R PRESTO-Tango plasmid construct, transiently expressed in HTLA cells (human, UniProt P32245 1-332)", "sequence (P32245 whole entry)": "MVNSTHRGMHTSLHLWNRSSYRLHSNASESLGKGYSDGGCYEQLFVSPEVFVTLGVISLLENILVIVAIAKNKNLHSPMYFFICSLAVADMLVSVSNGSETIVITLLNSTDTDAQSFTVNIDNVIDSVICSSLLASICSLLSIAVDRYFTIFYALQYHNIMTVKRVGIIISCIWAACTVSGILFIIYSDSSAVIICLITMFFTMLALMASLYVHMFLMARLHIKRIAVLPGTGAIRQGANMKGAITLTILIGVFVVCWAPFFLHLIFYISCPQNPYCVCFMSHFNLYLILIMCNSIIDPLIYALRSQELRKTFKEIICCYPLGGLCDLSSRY", "test": "cell-based or functional assay"}, "[2]": {"biological_target": "human melanocortin-4 receptor (hMC4R), stably expressed in HEK293 cells (human, UniProt P32245 1-332)", "sequence (P32245 whole entry)": "as above", "test": "cell-based or functional assay"}, "[3]": {"biological_target": "T1, mMC4R-HaloTag fusion protein (mouse, UniProt P56450 1-332, HaloTag NanoBRET 618 ligand bound to the HaloTag)", "T1 construct": "whole, on cells; not shown: HaloTag on the C-terminus", "test": "NanoBRET in transiently transfected cells; basal signal with assay buffer set as 100%"}}, "note": "Square brackets hold non-standard residues; d marks the D form. d2Nal = N[C@H](Cc1ccc2ccccc2c1)C(=O)O"}
{"binder": "Ac-H[d2Nal]RW-NH2", "note": "[CJL-1-80, Ac-His-DNal(2')-Arg-Trp-NH2]", "values": [{"measurement": "β-arrestin recruitment, response at 10 µM relative to the maximal efficacy of NDP-MSH", "setting": "[1]", "value": 30, "unit": "%"}]}
{"binder": "B1", "values": [{"measurement": "cAMP signaling (AlphaScreen), EC50", "setting": "[2]", "value": 1.9, "unit": "nM"}]}
{"binder": "B2", "values": [{"measurement": "binding result", "setting": "[3]", "value": "binds"}]}
